Experimental data reported in US20260069656A1, “Nutritive Polypeptides and Formulations Thereof, and Methods of Production and Use Thereof” (Axcella Health Inc., priority 2013, published 2026).

B1: SEQID-00100: nutritive polypeptide (protein, listed as Lactobacillus acidophilus)
chain: MSEEEIFNKIKDLIADNFEVDKDSITENTNFMNDLDADSIDLVEFILQLEDEFGAEIPDDEAEKIKTVGDAVSYIKSHQG
B2: SEQID-00241: nutritive polypeptide (protein, listed as Bos taurus)
chain: SELKKDIDDLELTLAKVEKEKHATENKVKNLTEEMAGLDETIAKLTKEKKALQEAHQQTLDDLQAEEDKVNTLTKAKTKLEQQVDDLEGSLEQEKKLRMDLERAKRKLEGDLKLA
B3: SEQID-00226: nutritive polypeptide (protein, listed as Bos taurus)
chain: QLQALQAQLTDTKKKVDDDLGTIENLEEAKKKLLKDVEVLSQRLEEKALAYDKLEKTKTRLQQELDDLLVDLDHQRQIVSNLEKKQKKFDQLLAEEKNIS
B4: SEQID-00287: nutritive polypeptide (protein, listed as Saccharomyces cerevisiae)
chain: LVLGALLDTSHKFRNLDKDLCEKCAKCISMIGVLDVTKHEFKRTTYSENEVYDLNDSVQTIKFLIWVINDILV
modifications: strain ATCC 204508 / S288c
notes: nutritive polypeptide
B5: SEQID-00510: nutritive polypeptide naturally produced in Turkey, recombinantly expressed in E. coli (protein)
chain: MVPIAEKMAEKQEEPSNTQNGEPDNAEEGEGKKKKKVKREDLPPFEIVTGERLPAIFFKFQFRNVEYSSGRNKTFLCYVVETQGKESTTSRGYLEDEHAASHAEIAFFNTILPKCESSLRYNITWYVSSSPCVTCADRISETLRKNKNLRLTIMVGRLFMWEEPEMQAALKKMKSAGCKLRIMKPQDFEYVWQNFVEQEEGEEAKAFVPWEDIQENFQYYEEKLAEILQ
modifications: Meleagris gallopavo
notes: nutritive polypeptide naturally produced in Turkey, recombinantly expressed in E. coli
B6: SEQID-00269: nutritive polypeptide (protein)
chain: DLKKKLDDDLGTLENLEELKKKLLKDLELLSQRLEELALAYDKLEKTKTRLQQELDDLLLDLDHQ
B7: SEQID-00622: protein of the 168 nutritive polypeptide library (protein, listed as Oryza sativa)
chain: MASEGAVSPAFAYTVVYVKDVAKSAAFYSAAFGYTVRRLDQSHKWAELESGTTTIAFTPLHQRETDALTGAVQLPDSAGERGPVEICFDYADVDAAYRRAVDSGAVPVSPPEQKSWGQKVGYVRDIDGIIVRMGSHVRA
modifications: subsp. japonica
notes: protein of the 168 nutritive polypeptide library
B8: SEQID-00302: nutritive polypeptide (protein)
chain: MAKKTVANLSASELSGKKVLVRADFNVPLDNGSISDDTRIRAALPTIQDLTSKGAKVILSSHFGRPQGQVVESMRLTPVAARLSELLGKTVKKCDDCIGEEVAVAVGAMSDGDVLLLENVRFHAAEEKNDPEFAKQLASVADLYVNDAFGTAHRAHASTEGVTKYLSPCVAGYLIEKELQFLQGAIESPQRPLAAIIGGSKVSSKIGVIEALLDKCDKLLLGGGMIFTFYKARGLSVGNSLVEEDKLELAKSLEAKAKEKGVTMLLPTDVVLADKFAADADSQTVSVEAIPDGWMGLDIGPDSVKVFQEALGDCKTVLWNGPMGVFEFEKFAAGTRAIAQTLAELTSTGTTTIIGGGDSVAAVEQLNLGEKMSHISTGGGASLELLEGKQLPGIVALDDA
modifications: Arthrospira platensis C1
notes: nutritive polypeptide
B9: SEQID-00305: nutritive polypeptide (protein, listed as Bos taurus)
chain: MPHQYPALTPEQKKELCDIAHRIVAPGKGILAADESTGSIAKRLQSIGTENTEENRRFYRQLLLTADDRVNPCIGGVILFHETLYQKADDGRPFPQVIKAKGGVVGIKVDKGVVPLAGTNGETTTQGLDGLSERCAQYKKDGADFAKWRCVLKIGEHTPSSLAIMENANVLARYASICQQNGIVPIVEPEILPDGDHDLKRCQYVTEKVLAAVYKALSDHHIYLEGTLLKPNMVTPGHACTQKYSHEEIAMATVTALRRTVPPAVPGITFLSGGQSEEEASINLNAINKCPLLKPWALTFSYGRALQASALKAWGGKKENLKAAQEEYVKRALANSLACQGKYTPSGKAGAAASESLFISNHAY
B10: SEQID-00099: nutritive polypeptide (protein, listed as Thermosynechococcus elongatus)
chain: MNQSEILEKVKAIVADQLSVDPEKVVPEASFAEDLNADSLDSVELIMALEEEFGVEIPDEEAEKLKTVQDVLDFINNKVAA
B11: SEQID-00598: nutritive polypeptide naturally produced in Flaxseed, recombinantly expressed in E. coli (protein, listed as Linum usitatissimum)
chain: MSRRCPGKNAWPELVGKSGNMAAATVERENRNVHAIVLKEGSAMTKDFRCDRVWVIVNDHGVVTSVPHIT
B12: SEQID-00236: nutritive polypeptide (protein, listed as Bos taurus)
chain: ALQEAHQQTLDDLQAEEDKVNTLTKAKTKLEQQVDDLEGSLEQEKKLRMDLERAKRKLEGDLKLA
B13: SEQID-00115: nutritive polypeptide (protein, listed as Sus scrofa)
chain: EDEDDKTVSDLAVVLFETATLRSGYLLPDTKAYGDRIERMLRLSLNIDPDAKVEEEPEEEPEETTEDTTEDTEQDDDEEMDAGADEEEQETSETSTAEKDE

assay: pH solubility screen in Citric Acid / Dibasic Sodium Phosphate buffers; format: physicochemical; conditions: lower pH of range
Method: pH Solubility. […] Protein was either lyophilized and then resuspended in buffer cocktail mixtures, or concentrated and then spiked into buffer cocktail mixtures at a final protein concentration of 5 to 30 mg/ml. As a control, protein was also dissolved in a solution of 8 M urea. Protein solutions were shaken for 10 min at room temperature. Turbidity of proteins was determined by measuring the absorbance of protein solutions at 650 nm. The protein solution was then centrifuged for 10 min at 1100×g to pellet undissolved or precipitated protein. The soluble protein fraction (supernatant) was sampled and protein concentration was measured by one or more of the following methods: Coomassie Plus Protein Assay (Pierce), Chip electrophoresis, gel electrophoresis, and/or absorbance at 280 nm. The pH range over which select proteins remained greater than 80% soluble as determined by Bradford and the A650 value are listed in Table E31C.

| Molecule | pH Range where Protein is >80% detected as Soluble and A650 <1 OD: Low |
| --- | --- |
| B1 | 4.3 |
| B2 | 4.3 |
| B3 | 2.6 |
| B4 | 6.2 |
| B5 | 6.5 |
| B6 | 7.2 |
| B7 | 2.8 |

same assay, conditions: other pH where soluble

| Molecule | pH Range where Protein is >80% detected as Soluble and A650 <1 OD: Other |
| --- | --- |
| B4 | 2.6 |
| B5 | 2.8 |

same assay, conditions: upper pH of range

| Molecule | pH Range where Protein is >80% detected as Soluble and A650 <1 OD: High |
| --- | --- |
| B1 | 7.1 |
| B2 | 9.1 |
| B3 | 9.1 |
| B4 | 9.1 |
| B5 | 7.1 |
| B6 | 9.1 |
| B7 | 7.1 |

assay: Thermostability, ProteoStat Thermal Shift Stability Kit, temperature of aggregation; format: physicochemical; conditions: pH 2.8; NS = protein not soluble
Method: Thermostability. The thermostability of proteins in a buffer cocktail of Citric Acid and Dibasic Sodium Phosphate over a pH range of 2.8 to 7.1 (preparation described above in Table E31B) was determined using the ProteoStat® Thermal Shift Stability Kit (Enzo Life Sciences) according to the manufacturer's standard protocol. Briefly, protein solutions (˜10 mg/ml) containing 1× ProteoStat TS Detection Reagent were heated from 25° C. to 95° C. at a rate of 0.5° C. per 30 sec using a real-time PCR (rtPCR) thermocycler (BioRad) equipped with a plate reader (SynergyMx, Biotek) while monitoring the fluorescence with a Texas Red filter.

| Molecule | Tagg pH 2.8 |
| --- | --- |
| B1 | 95 |
| B7 | 58.5 |

same assay, conditions: pH 3.7; NS = protein not soluble

| Molecule | Tagg pH 3.7 |
| --- | --- |
| B1 | 95 |
| B7 | 42 |

same assay, conditions: pH 3.9; NS = protein not soluble

| Molecule | Tagg pH 3.9 |
| --- | --- |
| B1 | 95 |
| B7 | 42 |

same assay, conditions: pH 4.3; NS = protein not soluble

| Molecule | Tagg pH 4.3 |
| --- | --- |
| B1 | 83 |
| B7 | 43.5 |

same assay, conditions: pH 4.6; NS = protein not soluble

| Molecule | Tagg pH 4.6 |
| --- | --- |
| B1 | 84 |
| B7 | 43.5 |

same assay, conditions: pH 5.0; NS = protein not soluble

| Molecule | Tagg pH 5.0 |
| --- | --- |
| B1 | 95 |
| B7 | 42.5 |

same assay, conditions: pH 5.6; NS = protein not soluble

| Molecule | Tagg pH 5.6 |
| --- | --- |
| B1 | 95 |
| B7 | 45.5 |

same assay, conditions: pH 6.0; NS = protein not soluble

| Molecule | Tagg pH 6.0 |
| --- | --- |
| B1 | 95 |
| B7 | 46 |

same assay, conditions: pH 6.5; NS = protein not soluble

| Molecule | Tagg pH 6.5 |
| --- | --- |
| B1 | 95 |
| B7 | 47 |

same assay, conditions: pH 7.1; heated 25° C. to 95° C.; NS = protein not soluble

| Molecule | Tagg (pH 7.1) |
| --- | --- |
| B1 | >95 |
| B7 | 95 |

same assay, conditions: pH 7.1; heated from 25° C. to 95° C.

| Molecule | Tagg (pH 7.1) |
| --- | --- |
| B8 | 46 |
| B2 | >95 |
| B3 | >95 |
| B9 | 48 |
| B6 | >95 |
| B10 | 64 |

assay: Intact half-life during simulated gastric fluid (SGF) digestion; conditions: SGF pH 1.5, pepsin:polypeptide 1:20 w/w, 37° C.; produced in E. coli unless otherwise noted

| Molecule | SGF Half-life (t½) |
| --- | --- |
| B8 | 12 s |
| B1 | 120 s |
| B2 | 18 s |
| B11 | 30 s |
| B3 | 42 s |
| B4 | 180 s |
| B5 | 18 s |
| B12 | 600 s |
| B9 | 12 s |
| B6 | 2460 s |
| B7 | 396 s |
| B10 | 60 s |

same assay, conditions: purified proteins, chip electrophoresis, SGF

| Molecule | Half-life |
| --- | --- |
| B11 | 30 s |
| B5 | 18 s |
| B7 | 396 s |

assay: Solubility of proteins (lyophilized/reconstituted or ultrafiltered); conditions: produced in E. coli unless otherwise noted
Method: Solubility. […] Protein samples were dried by lyophilization on a FreeZone Freeze Dry System (Labconco) using the manufacturer's standard protocol and then resuspended in buffer to the desired concentration. Centrifugal and tangential ultrafiltration were used to selectively remove buffer from the protein sample until the desired concentration was reached. Centrifugal ultrafiltration of protein solutions was performed by centrifugation (10,000×g) of 10 mg of protein in an Amicon centrifugal filter (Millipore) with a molecular weight cutoff of 3 kDa, 10 kDa, or 30 kDa, depending on the protein size, until the desired contrentration was reached. Ultrafiltration of protein solutions was performed on Hydrosart ultrafiltration cassettes (Sartorius Stedim, Bohemia, NY) with a molecular weight cutoff of 3 kDa, 10 kDa, or 30 kDa, depending on the protein size, at a cross flow rate of 12 L/m2/min. For most processes, transmembrane pressure was maintained at 20 psi and performed until the desired contrentration was reached.
The protein concentration of the above samples was measured by one or a combination of the following methods: Coomassie Plus Protein Assay, absorbance at 280 nm (A280), and total amino acid analysis. Coomassie Plus Protein Assays (Pierce) were performed according to the manufacturer's protocol. Absorbance at 280 nm was measured on a Nanodrop 2000 UV-Vis spectrophotometer. Protein concentration was determined using the A280 value and molar extinction coefficient, which was calculated by primary amino acid sequence using ProtParam (Gasteiger, Elisabeth, et al. The proteomics protocols handbook. Humana Press, 2005. 571-607.). Total amino acids were analyzed by HPLC after acid hydrolysis as described in Henderson, J. W., et al. Agilent Technologies (2010).

| Molecule | Solubility |
| --- | --- |
| B11 | 150 mg/mL |
| B13 | 70 mg/mL |
| B12 | 60 mg/mL |
| B10 | 91 mg/mL |
